Patent publication US6475791B1, “Uses for DNA structure-specific recognition protein” (Massachusetts Institute of Technology, priority 1988, dated 2002)

Experiments:
[1] = test system: cellular SSRP in human (HeLa) and hamster (V79) cell extracts; conditions: cited from earlier work
[2] = test system: cisplatin 1,3-d(GTG) intrastrand adduct (1,3-GTG), excision by human excinuclease; experiment: Exinuclease excision repair of the 1,3-intrastrand cisplatin lesion by HeLa cell-free extract, with or without HMG-box protein; type: biochemical; conditions: for percent inhibition of repair, 1,3-GTG adduct: 30 min, 30° C, average of two experiments
Procedure: (§1) Exinuclease substrates with defined cisplatin lesions Nucleic acid fragments (oligomers) bearing a 1,2-d(G^G) or a 1,3-d(GTG) cisplatin crosslink at a defined site were prepared essentially according to the method of Shi et al. (1987), 15 Nucleic Acids Res. 6843, by ligation of a mixture of a cisplatin-lesioned dodecamer with seven other oligonucleotides to produce 156 bp fragments. Prior to ligation, lesioned dodecamers were labeled with [γ-^32P]ATP such that the detectable radiolabel would be located at the 4th phosphodiester bond 5′ to the 1,3-intrastrand d(GTG) lesion, or the 5th phosphodiester bond 5′ to the 1,2-intrastrand d(G^G) lesion. Thus, the radiolabel would be included in the 27-29 nucleotide fragment spanning the cisplatin lesion that would be released by exinuclease. Full length (156 bp) exinuclease substrate oligomers were isolated on a 5% polyacrylamide/8 M urea denaturing gel and reannealed.
(§2) Exinuclease reaction. The excision reaction buffer contained 40 mM Hepes, pH 7.9, 80 mM KCl, 8 mM MgCl2, 2 mM ATP, 20 μM of each dNTP, 1 mM dithiothreitol, 0.3 mM EDTA, 6.8% (v/v) glycerol, and 200 μg/ml bovine serum albumin. The reaction mixture (50 μl) contained 100 μg of CFE (in cases of complementation, 50 μg of each of the XP CFE) and 30 pM DNA substrate (specific activity 7000 Ci/mmol), plus 250 ng pBR322 as carrier DNA. The excision reaction was carried out varying lengths of time at 30° C. Following proteinase K digestion, DNA exinuclease reaction products were extracted by phenol/chloroform and precipitated with ethanol. Equal amounts of DNA were loaded onto each lane.
(§3) The radiolabeled substrates bearing specific 1,2- and 1,3-intrastrand cisplatin lesions and the HeLa cell-free extract described above in Example 1 were used.
(§4) Gel Mobility Shift Assay. The 25 μl reaction mixtures contained 30 pM substrate and 0, 1, 2, 4 or 8 μM HMG1. Mixtures were incubated at 30° C. for 10 min. Samples (1.5 μl) of the mixtures were withdrawn and adjusted to 15% (v/v) glycerol, and electrophoretically resolved on a 5% native polyacrylamide gel. Results were visualized by autoradiography.
(§5) Exinuclease reaction in the presence of HMG1. Following withdrawal of the above samples for gel mobility shift analysis, 50 μg of HeLa CFE was added to each of the reaction mixtures and incubation was continued for 30 min at 30° C. as described in Example 1. Reactions were stopped and DNA reaction products were retrieved and analyzed as described in Example 2.
(§6) An exinuclease inhibition study was carried out generally as described in Example 3, using 0, 0.5 or 1.0 μM concentrations of HMG1 or h-mtTFA in parallel incubations.

[3] = test system: cisplatin 1,2-d(G^G) intrastrand adduct (1,2-GG), excision by human excinuclease; experiment: Exinuclease excision repair of the 1,2-intrastrand cisplatin lesion by HeLa cell-free extract, with or without HMG-box protein; type: biochemical; conditions: for percent inhibition of repair, 1,2-GG adduct: 30 min, 30° C, average of two experiments
Procedure: as §1, §2, §3, §4, §5, §6

[4] = test system: yeast ixr-1 null mutant strain; conditions: Brown et al. (1993); cited from earlier work
[5] = test system: h-mtTFA (mitochondrial transcription factor A) (Homo sapiens); experiment: inhibition
HMG1 = experiment: inhibition; conditions: cisplatin 1,2-d(GpG) intrastrand crosslink; inhibition of excision repair by HeLa CFE at 1 uM HMG1 (20% at 0.5 uM); 8 mM MgCl2, 2 mM ATP, 30 C
[6] = 90 min, HeLa CFE, no inhibitor, over 20 independent assays

NC1CCCCC1N.[Cl][Pt][Cl] (stereo not drawn) [cis-dichloro(1,2-diaminocyclohexane)platinum(II)]
cellular SSRP binding to double stranded probe DNA bearing lesions produced by the compound [1]: bound

N.N.[Cl][Pt][Cl] [cisplatin, cis-diamminedichloroplatinum(II), reference compound]
cellular SSRP binding to double stranded probe DNA bearing lesions produced by the compound [1]: bound | range of excision of the 1,3-d(GTG) crosslink [2, 6]: 2.3-8% | range of excision of the 1,2-d(G^G) crosslink [3, 6]: 1-8% | sensitivity of ixr-1 null yeast to cisplatin killing relative to parent (wildtype Ixr-1) strain [4]: two-fold less sensitive

156 bp duplex with site-specific cisplatin 1,3-d(GTG) intrastrand crosslink
activity ([5]; cisplatin 1,3-d(GpTpG) intrastrand crosslink, inhibition of excision repair at 1 uM h-mtTFA (40% at 0.5 uM)): 75 % inhibition

[Cl-].[NH-]CC[N-]CC[NH-].[Pt+4] [chloro(diethylenetriamine)platinum(II)]
cellular SSRP binding to double stranded probe DNA bearing lesions produced by the compound [1]: did not bind

NCCN.[Cl][Pt][Cl] [cis-dichloro(ethylenediamine)platinum(II)]
cellular SSRP binding to double stranded probe DNA bearing lesions produced by the compound [1]: bound

N.N.[Cl][Pt+2][Cl] [transplatin]
cellular SSRP binding to double stranded probe DNA bearing lesions produced by the compound [1]: did not bind

156 bp duplex with site-specific cisplatin 1,2-d(GpG) intrastrand crosslink
activity ([5]; cisplatin 1,2-d(GpG) intrastrand crosslink, inhibition of excision repair at 0.5 uM h-mtTFA (100% at 1 uM)): 95 % inhibition | activity (HMG1): 40 % inhibition

B1: h-mtTFA: human mitochondrial transcription factor A, an HMG domain protein (protein, UniProt Q00059 43-246, looked up)
Transcription factor A, …: SSVLASCPKKPVSSYLRFSKEQLPIFKAQNPDAKTTELIRRIAQRWRELPDSKKKIYQDAYRAEWQVYKEEISRFKEQLTPSQIMSLEKEIMDKHLKRKAMTKKKELTLLGKPKRPRSAYNVYVAERFQEAKGDSPQEKLKTVKENWKNLSDSEKELYIQHAKEDETRYHNEMKSWEEQMIEVGRKDLLRRTIKKQRKYGAEEC
percent inhibition of repair, 1,3-GTG adduct ([2]; 0.5 μM protein, HeLa CFE): 40% | percent inhibition of repair, 1,3-GTG adduct ([2]; 1 μM protein, HeLa CFE): 75% | percent inhibition of repair, 1,2-GG adduct ([3]; 0.5 μM protein, HeLa CFE): 95% | percent inhibition of repair, 1,2-GG adduct ([3]; 1 μM protein, HeLa CFE): 100%

B2: HMG1: Recombinant HMG1 protein purified from an E. coli overproducing strain; HMG domain protein (protein, UniProt P09429 1-215, looked up)
High mobility group protein B1: MGKGDPKKPRGKMSSYAFFVQTCREEHKKKHPDASVNFSEFSKKCSERWKTMSAKEKGKFEDMAKADKARYEREMKTYIPPKGETKKKFKDPNAPKRPPSAFFLFCSEYRPKIKGEHPGLSIGDVAKKLGEMWNNTAADDKQPYEKKAAKLKEKYEKDIAAYRAKGKPDAAKKGVVKAEKSKKKKEEEEDEEDEEDEEEEEDEEDEDEEEDDDDE
percent inhibition of repair, 1,3-GTG adduct ([2]; 0.5 μM protein, HeLa CFE): 0% | percent inhibition of repair, 1,3-GTG adduct ([2]; 1 μM protein, HeLa CFE): 0% | effect on excision of the 1,3-crosslink ([2]; HMG1 concentrations up to about 4 μM, inhibited at higher concentrations, FIG. 5): modestly stimulated | percent inhibition of repair, 1,2-GG adduct ([3]; 1 μM protein, HeLa CFE): 40% | effect on excision of the cisplatin 1,2-intrastrand crosslink ([3]; escalating concentrations of purified HMG1 (0-8 μM), FIG. 5): monotonically inhibited
